Experimental data published in the RNAGym collection of RNA variant scans (doi:10.7554/elife.80360).

B1: HDV Ribozyme (parent)
chain: GGCCGGCAUGGUCCCAGCCUCCUCGCUGGCGCCGGCUGGGCAACAUUCCGAGGGGACCGUCCCCUCGGUAAUGGCGAAUGGGACCCA

Variants of: B1
Experiment: self-cleavage, relative activity (ratio to wild type); higher = more cleavage; co-transcriptional

Row | Variant | self-cleavage
1 | C49U A78U | 0.437
2 | C49U A83U | 0.391
3 | C49U A87G | 0.959
4 | C49U A87U | 0.939
5 | C49U C58U | 0.991
6 | C49U C61U | 0.851
7 | C49U C62U | 1.17
8 | C49U C63A | 1
9 | C49U C63G | 0.396
10 | C49U C64A | 0.739
11 | C49U C66U | 0.899
12 | C49U C84G | 0.364
13 | C49U G50U | 0.941
14 | C49U G54A | 1.02
15 | C49U G55C | 0.906
16 | C49U G68U | 0.817
17 | C49U G73A | 0.716
18 | C49U G73C | 0.409
19 | C49U G74A | 0.443
20 | C49U G74C | 0.374
21 | C49U G76C | 0.867
22 | C49U G80C | 0.143
23 | C49U G80U | 0.219
24 | C49U G81U | 0.314

Row | Variant | self-cleavage
25 | C49U G82C | 0.264
26 | C49U G82U | 0.47
27 | C49U U60A | 0.718
28 | C49U U60C | 1.04
29 | C49U U60G | 0.939
30 | C49U U65G | 0.939
31 | C49U U79A | 0.811
32 | G50A | 0.98
33 | G50A A56C | 1.25
34 | G50A A71G | 0.991
35 | G50A A71U | 0.881
36 | G50A A77U | 0.721
37 | G50A A78U | 0.4
38 | G50A A83C | 0.525
39 | G50A A87C | 1.07
40 | G50A C57G | 0.886
41 | G50A C61U | 0.649
42 | G50A C62A | 0.694
43 | G50A C62G | 0.219
44 | G50A C84A | 0.95
45 | G50A C84G | 0.853
46 | G50A C85G | 0.878
47 | G50A C86G | 0.884
48 | G50A G52A | 0.888

Row | Variant | self-cleavage
49 | G50A G54C | 0.628
50 | G50A G55C | 0.81
51 | G50A G59C | 1.31
52 | G50A G67A | 1.17
53 | G50A G67C | 0.869
54 | G50A G67U | 1.06
55 | G50A G73A | 0.623
56 | G50A G73C | 0.436
57 | G50A G73U | 0.369
58 | G50A G74A | 0.411
59 | G50A G74C | 0.242
60 | G50A G80U | 0.233
61 | G50A G82C | 0.409
62 | G50A U60A | 0.776
63 | G50A U69G | 0.76
64 | G50A U72G | 0.582
65 | G50C | 0.963
66 | G50C A51C | 0.814
67 | G50C A56C | 0.978
68 | G50C A71G | 1.01
69 | G50C A77G | 0.665
70 | G50C A77U | 0.554
71 | G50C A78U | 0.131
72 | G50C C57G | 1.12

Row | Variant | self-cleavage
73 | G50C C57U | 1.04
74 | G50C C58G | 0.796
75 | G50C C58U | 1.04
76 | G50C C64A | 0.389
77 | G50C C66A | 0.812
78 | G50C C66U | 0.954
79 | G50C C84G | 0.542
80 | G50C G54U | 0.374
81 | G50C G55C | 1.14
82 | G50C G59A | 0.992
83 | G50C G74A | 0.471
84 | G50C G74U | 0.292
85 | G50C G80A | 0.523
86 | G50C G81U | 0.263
87 | G50C U60A | 1.03
88 | G50C U60G | 1.03
89 | G50C U65A | 0.919
90 | G50C U72A | 0.789
91 | G50U | 0.989
92 | G50U A51U | 1.05
93 | G50U A70U | 0.946
94 | G50U A77U | 0.62
95 | G50U A78U | 0.229
96 | G50U A83G | 0.818

Row | Variant | self-cleavage
97 | G50U A87C | 0.935
98 | G50U C66G | 0.787
99 | G50U C84A | 0.974
100 | G50U C84G | 0.724
101 | G50U C85A | 0.742
102 | G50U C86G | 0.811
103 | G50U G53U | 0.735
104 | G50U G55C | 1.03
105 | G50U G55U | 0.906
106 | G50U G59U | 0.939
107 | G50U G68U | 0.576
108 | G50U G73C | 0.268
109 | G50U G76C | 1.19
110 | G50U G80A | 0.486
111 | G50U G80U | 0.2
112 | G50U G82A | 0.499
113 | G50U U65G | 0.945
114 | G50U U79C | 0.507
115 | A51C A56U | 1.05
116 | A51C A70C | 1.03
117 | A51C A71C | 0.692
118 | A51C A77G | 0.643
119 | A51C A77U | 0.429
120 | A51C A78U | 0.133

Row | Variant | self-cleavage
121 | A51C A83C | 0.571
122 | A51C A87G | 0.862
123 | A51C C57G | 1.14
124 | A51C C61U | 0.914
125 | A51C C62A | 0.623
126 | A51C C66A | 1.09
127 | A51C C66G | 0.864
128 | A51C C75U | 0.141
129 | A51C C84A | 0.675
130 | A51C C86A | 0.872
131 | A51C C86G | 0.712
132 | A51C C86U | 1.01
133 | A51C G53A | 0.491
134 | A51C G53U | 0.69
135 | A51C G59A | 0.92
136 | A51C G76C | 0.982
137 | A51C G80U | 0.199
138 | A51C G81A | 0.323
139 | A51C G82U | 0.386
140 | A51C U60A | 1.11
141 | A51C U72A | 0.609
142 | A51C U72G | 0.529
143 | A51G A71G | 0.752
144 | A51G C57G | 0.916

Row | Variant | self-cleavage
145 | A51G C61A | 0.954
146 | A51G C61G | 0.964
147 | A51G C64G | 0.902
148 | A51G C64U | 0.892
149 | A51G C85G | 0.984
150 | A51G C85U | 0.743
151 | A51G C86U | 1.13
152 | A51G G52U | 1.02
153 | A51G G53A | 0.831
154 | A51G G55U | 1.06
155 | A51G G59C | 0.895
156 | A51G G59U | 1.1
157 | A51G G74C | 0.148
158 | A51G G76A | 0.91
159 | A51G G76C | 0.831
160 | A51G G81U | 0.356
161 | A51G G82A | 0.125
162 | A51G G82C | 0.322
163 | A51G G82U | 0.203
164 | A51G U60G | 0.867
165 | A51G U65A | 0.7
166 | A51G U65G | 0.682
167 | A51G U72C | 0.864
